The results in this text go back to article PMC2788865.

The target in assay [1] is phospho-Thr^286-αCaMKII (mouse) (UniProt P11798). The assay is described as follows: fluorescence polarisation. (In fluorescence polarisation assays a small probe gives low polarisation when free and higher when bound to something large.)
In a further assay the target is calmodulin (CaM). The experiment in a line: FL-CaM fluorescence polarisation. The conditions noted are these: reference: αCaMKII with Ca2+/FL-CaM, no ATP; sites T286.

Sequence of phospho-Thr^286-αCaMKII (mouse) (P11798 whole entry): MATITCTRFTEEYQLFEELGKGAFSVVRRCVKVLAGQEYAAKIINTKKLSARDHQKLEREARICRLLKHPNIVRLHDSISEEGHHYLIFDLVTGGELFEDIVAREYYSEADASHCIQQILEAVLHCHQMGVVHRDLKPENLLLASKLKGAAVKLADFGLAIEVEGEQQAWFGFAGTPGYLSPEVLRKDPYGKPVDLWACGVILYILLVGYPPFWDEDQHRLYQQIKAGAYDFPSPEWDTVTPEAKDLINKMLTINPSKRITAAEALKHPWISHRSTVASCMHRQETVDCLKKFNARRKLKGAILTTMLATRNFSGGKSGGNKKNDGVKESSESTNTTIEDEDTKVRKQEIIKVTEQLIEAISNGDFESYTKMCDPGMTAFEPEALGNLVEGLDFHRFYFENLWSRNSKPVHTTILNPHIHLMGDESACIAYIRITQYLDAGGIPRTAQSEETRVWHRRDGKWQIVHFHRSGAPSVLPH
Sequence of αCaMKII (P11798 whole entry, looked up, change not shown): as the sequence (P11798 whole entry) above

Regarding “Lys^75-FL-calmodulin (FL-CaM) (from UniProt P0DP23 1-149) (natural protein)”, in assay [1], the rate constant of CaM dissociation (polarization, slow phase) after EGTA is 0.02 s⁻¹.
“αCaMKII (from UniProt P11798) αCaMKII with Ca2+/FL-CaM and ATP (autophosphorylated)”: the “other: fluorescence polarisation of FL-CaM” value with calmodulin (CaM) is listed as “stronger; reference 0.33”.
